# Assay results as given in publication PMC10611767, “TudS desulfidases recycle 4-thiouridine-5’-monophosphate at a catalytic [4Fe-4S] cluster” (Communications Biology, 2023).
# What was measured:
# Experiment in all cases: purified protein
# Settings in all cases: anaerobic, normalized to 4 Fe per protein
# O=c1[nH]ccc(=S)[nH]1 = tested on: O=c1[nH]ccc(=S)[nH]1
# [1] = tested on: O=c1[nH]c(=S)ccn1[C@@H]1O[C@H](COP(=O)(O)OP(=O)(O)OP(=O)(O)O)[C@@H](O)[C@H]1O
# [2] = tested on: O=c1[nH]c(=S)ccn1[C@@H]1O[C@H](COP(=O)(O)O)[C@@H](O)[C@H]1O
# [3] = tested on: O=c1[nH]c(=S)ccn1[C@@H]1O[C@H](CO)[C@@H](O)[C@H]1O
# [4] = 100 mM MOPS/KOH pH 7.3, anaerobically purified
# [5] = 100 mM MOPS/KOH pH 7.3, 30 °C, anaerobically purified
substance,measurement,setting,value
TudS_P (Pseudomonas sp. MIL19),Km,O=c1[nH]ccc(=S)[nH]1; [4],1490 ± 270 µM
same,Vmax,O=c1[nH]ccc(=S)[nH]1; [4],15.9 µmol/min/mg
same,kcat,O=c1[nH]ccc(=S)[nH]1; [4],4.93 ± 0.43 s⁻¹
same,kcat/Km,O=c1[nH]ccc(=S)[nH]1; [4],3270 M⁻¹ s⁻¹
same,Km,[1]; [4],117 ± 26 µM
same,Vmax,[1]; [4],168 µmol/min/mg
same,kcat,[1]; [4],52.3 ± 2.4 s⁻¹
same,kcat/Km,[1]; [4],448000 M⁻¹ s⁻¹
same,Km,[2]; [4],20 ± 7 µM
same,Vmax,[2]; [4],447 µmol/min/mg
same,kcat,[2]; [4],138 ± 16 s⁻¹
same,kcat/Km,[2]; [4],7.63e+06 M⁻¹ s⁻¹
same,Km,[3]; [4],200 ± 90 µM
same,Vmax,[3]; [4],64.3 µmol/min/mg
same,kcat,[3]; [4],19.9 ± 4.7 s⁻¹
same,kcat/Km,[3]; [4],103000 M⁻¹ s⁻¹
TudS_A (uncultured bacterium),Km,O=c1[nH]ccc(=S)[nH]1; [5],240 ± 30 µM
same,Vmax,O=c1[nH]ccc(=S)[nH]1; [5],2.4 µmol/min/mg
same,kcat,O=c1[nH]ccc(=S)[nH]1; [5],0.7 ± 0.05 s⁻¹
same,kcat/Km,O=c1[nH]ccc(=S)[nH]1; [5],2900 M⁻¹ s⁻¹
same,Km,[1]; [5],100 ± 23 µM
same,Vmax,[1]; [5],234 µmol/min/mg
same,kcat,[1]; [5],68.6 ± 3.4 s⁻¹
same,kcat/Km,[1]; [5],685000 M⁻¹ s⁻¹
same,Km,[2]; [5],38 ± 13 µM
same,Vmax,[2]; [5],1000 µmol/min/mg
same,kcat,[2]; [5],293 ± 44 s⁻¹
same,kcat/Km,[2]; [5],7.77e+06 M⁻¹ s⁻¹
same,Km,[3]; [5],3100 ± 600 µM
same,Vmax,[3]; [5],30.1 µmol/min/mg
same,kcat,[3]; [5],8.8 ± 0.9 s⁻¹
same,kcat/Km,[3]; [5],2880 M⁻¹ s⁻¹
